Tested on: K4 kissing-loop RNA reporter
Assay: apparent KD of K4 kissing-loop reporter; higher = weaker reporter binding
Settings: Eterna round: R107; input ligand: theophylline 20 uM
Experimental: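 RNA-MaP round R107: designed RNA switches with theophylline, tryptophan, arginine or FMN aptamers are transcribed on-chip within common flanks. They are titrated with a labelled K4 kissing-loop RNA reporter in RNA-MaP buffer (100 mM Tris pH 7.5, 80 mM KCl, 4 mM MgCl2), without ligand or with the indicated ligand. Median apparent KD per design.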
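Note: bound reporter read as fluorescence of individual clusters on recovered sequencing chips by microscopy, with normalized cluster intensities fitted with a binding model.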

“GAUGUUUGCCGAAGGAGCGAGUAUUCGCCAGUGAUGUUGGUGAGAUAUACACGUAUCAGUGCUCAGGUAGGUCGCGGCGCUUGUU [Same State Arginine B GF 27]” and “AAGGCCACGAGAAGGAGCGUGCUGUGGAGUGAUGUUCCAUUGUAGACCUAAGGUCUACGAGCACAGGUAGGUCGCUCGUGGUCAA [Omei KL Arginine B SS A v4]” are within 1.5-fold of each other in “apparent KD of K4 kissing-loop reporter” value: 135 nM for the first, 102 nM for the second.

First: AAAUUUAUAUUAGAUACCAGCAUAUUGAAAGUUUAUUAUGACAAGAGUGAUGUUCUUGUAUGCCCUUGGCAGCUGGUAUGGGUUU [KL-XTheo-B25]
Second: AAGCAGUCGCUCGAAGCCAUCGAAGAUGGGCGAGGACCGGUACGGCCGCCACUCGGAGUGAUGUUCCGAGGACUGCAAAAUAAAA [MatMod 5 - Jieux - Exclusion - Tryptophan A]
The “apparent KD of K4 kissing-loop reporter” value of the first is 2.4-fold lower: 110 nM for the first, 263 nM for the second.

Compared with “UAGUCCGGGUGAUGGUCAUCACGUGGCGGGCGAGGACCGGUACGGCCGCCACUCGACUUUGCAGUGAUGUUGCAAACCGGACAAU [Exclusion - Tryptophan A (Freestyle 22)]”, “AAGUGUGUGGCGGCCGCCACUAGAAUCCAGUGAUGUUGGAGUUAUCAUAUAAAUGAUAAUCAACAUAGGACCGGGCCAUAUAGAA [Same State - Tryptophan B (Freestyle 7)]” is 3.3-fold higher in “apparent KD of K4 kissing-loop reporter” value: 225 nM for the first, 745 nM for the second.

“GUCCGGAAGGCGGCUUCACGACCGUGGUGGGAGGAUAUGUCUAAGGACAGAAGGCCCAGUGAUGUUGGGCUUUAGGAGAGCCAUA [Ragele]” and “UUGCCCGAUGGAGAUACCAGCAGUUGUGCAGUGAUGUUGCACAAGUACUCGCUCCAUUGCUGCCCUUGGCAGCUCCCGGCGAAAA [Reoraren]” are within 1.5-fold of each other in “apparent KD of K4 kissing-loop reporter” value: 116 nM for the first, 92.4 nM for the second.

First: GCGCAUGUUAAAGGAUAUAGCAGGUGAUACAAGAAAGUGAGUGAUGUUUAUGUAGAUGAUGAUAUGUUAGAAGGUUAACAAGCGC [abcdefghijklmnop]
Second: AAGAAUGCAGGAAGGAGCGGCGGACGGAGUGAUGUUCCGGCUAGUGAUGUUAGCAAACACCGCCAGGUAGGUCGCCUGCUGCCCU [Same State Arginine B GF 6]
The “apparent KD of K4 kissing-loop reporter” value of the first is 5.2-fold higher: 788 nM for the first, 153 nM for the second.

Going from “UAAGAGGACCACUGCAAAAGUCCUCGAAUACGAGGACCGGUACGGCCGCCACUCGAUAAUUUGCAGUGAUGUUGCAAGUAAGAAU [BrourdMod 4 - Jieux - Same State Tryptophan A]” to “AGCUAGUGAAACUAGUUUAAACUAGGUGAAGGAGCGAUCGAAAGAUCAGGUAGGUCGCACCUAACUGAGUGAUGUUCAGGAAAUA [KL-SSArg-A4]”, the “apparent KD of K4 kissing-loop reporter” value falls from 201 nM to 66.7 nM (3-fold).

First: GCACACUAGUAAACUAGUGUGUUAACUGAAGGAGCGUGAAUAAUCACAGGUAGGUCGCAGUUUGUCAGUGAUGUUGACACGAGUG [Arg A SS t2]
Second: CUGCAAAAGUCGGCCGCCACUCCGGGCCCUAUAAAUGGGCGCAGUGAUGUUGCGGCUAGGCCUCUGAGGACCGGGACUUUGUAAC [Aratan]
The “apparent KD of K4 kissing-loop reporter” value of the first is 1.9-fold higher: 247 nM for the first, 131 nM for the second.

“CCAUCGCUAUUCGAUACCAGCUCCUUAGUGAUGUUAAGGUUUUACGCUCUGUAGGAGCGAAGCCCUUGGCAGCGAGUAGUGAUGG [#04 K4 Theophylline B Same State]” and “GGCAUGCGUAGAGUGAUGUUCUAAGAUGAUACCAGUGCGGAAACGCACCCUUGGCAGCAUCUGACGAGCAUGCCGGCGAAAGCCU” are within 1.5-fold of each other in “apparent KD of K4 kissing-loop reporter” value: 716 nM for the first, 607 nM for the second.

First: AGAGUUAUGCGAGGAUAUGCAGUUAGUACUCAAAGAGUACUAACGCAGAGUGAUGUUCUGUGAAAUGCAGAAGGUGCAUAACUCA [Omei KL FMN B SS B v5]
Second: GGGCAAGUGAGUGAUGUUCGAUGAUGCUUAAAGGAUAUGUAGGAAUACAGAAGGUUAUAUUCCCUGACAUUAGAUCUUUACAGGG [theeternabot_exclusion_KL_FMN_A_44]
The “apparent KD of K4 kissing-loop reporter” value of the first is 2.1-fold higher: 316 nM for the first, 151 nM for the second.

Going from “GACCUAAGCUAUGAUACCAGUCUGGCACGAAGAAGUGAUGUUUCCCAGCGUUUGUCACUUGACCCUUGGCAGCAUGCGAUCAGCU [theeternabot_sameState_KL_Theo_B_29]” to “CGAGUGAUGUUCGUUCGUUUAUUUCGGUGACAGGAUAUGCGGAAACGCAGAAGGGUCACCUUUGAGUUACCGGAAUUAACGUUAU [Ex FMN A 29]”, the “apparent KD of K4 kissing-loop reporter” value rises from 165 nM to 558 nM (3.4-fold).

“CGAAGAUUCCAUGAUACCAGCCUCGGCCCAUAGAGUGAUGUUCUAGUCGGGUCCGUUCGCGGCCCUUGGCAGCAUUUCACCACGA [theeternabot_sameState_KL_Theo_B_44]” and “UGUCAUUGGUCGGCCGCCACUAUAUAAAAGAGUGAUGUUCUAAAGACGGAUCGAAAGAUCUGUCAUAGGACCGGGACCGAUGACU [TrypBS 20 #SwitchBubble #StaticStem]” are within 1.5-fold of each other in “apparent KD of K4 kissing-loop reporter” value: 216 nM for the first, 294 nM for the second.

Going from “UCCCUAAAGGGAGAUACCAGUAAAGAAGUGACGGAGUGGAGUGAUGUUCCAUAUUACUGAUACCCUUGGCAGCUCUUUUGAUUAC [theeternabot_sameState_KL_Theo_B_47]” to “AACUGUCAAGGACAACAUUACUGAGGUGAUACCAGCAUCGAAAGAUGCCCUUGGCAGCACCGACUUGCAGUGAUGUUGCAAGUAA [BrourdMod 11 - Jieux - Exclusion - Theophylline A]”, the “apparent KD of K4 kissing-loop reporter” value rises from 187 nM to 322 nM (1.7-fold).

Going from “UUUUAAUGCAGUGAUGUUGCUAAUAAAACAGAGGAUAUGCAUGGAAGCAGAAGGCUGAAAUAUUAUACUUUAAUAAAUUAUAUUU [JR_SSFMNA_Sub010]” to “AUUCUUUUUUUGAUGUUUUUUGUAUAAUGGCAGGAUAUCGUAGAAGCGAGAAGGGCUUUUAUGCGUUAUGAGUGAUGUUUGUAGG [szeewvmullin]”, the “apparent KD of K4 kissing-loop reporter” value rises from 119 nM to 340 nM (2.9-fold).
